± gives the standard deviation of the averaged measurements.
B1: library; a variant is named by its letters at N, in order (parent)
chain: GCUGUCACCGGUGCUUGGUACGUUAUAUUCAGCCGGUCUGAUGAGUCUNNNNNNAGACGAAACAGC

What was measured:
(6R,S)-folinic acid [1] = variants of: B1; assay: FACS-Seq fitted mean relative fluorescence mCherry/BFP without ligand (log10 relative fluorescence); HEK293T overexpressing SLC46A1; higher = higher reporter protein expression; conditions: without (6R,S)-folinic acid; ligand present: no
In short: (§1)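 HEK293T libraries were made by lentiviral transduction with a ribozyme-switch mCherry reporter and an EF1α-BFP marker, enriched, and incubated with or without ligand for 48 h. Cells were sorted into 6 mCherry/BFP bins, and each bin's genomic DNA was PCR-amplified, barcoded and run on MiSeq. Fluorescence was derived by normal fitting of the bin counts. The fitted log10(mCherry/BFP) mean was scaled to five spiked-in control ribozymes.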

(6R,S)-folinic acid [2] = variants of: B1; assay: normalized RNA/DNA level without ligand (relative to sTRSVctl = 100) (log10 (% of sTRSVctl)); HEK293T overexpressing SLC46A1; higher = less ribozyme self-cleavage, higher mRNA level; conditions: without (6R,S)-folinic acid; ligand present: no
In short: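 HEK293T cells were transfected with library plasmids carrying ribozyme switches linked to an mCherry reporter, or an eGFP reporter in some ligand experiments, at 4 µg per well of a 6-well plate, with any ligand added 1 h beforehand. After 72 h, total RNA was extracted with EDTA, reverse-transcribed, amplified, barcoded and sequenced. RNA level was defined as RNA reads over DNA reads, normalized to a spiked-in non-cleaving sequence or to the top-ranked sequences. That value was multiplied by 100 and converted to log10, the top set was 25 sequences, and only sequences with ≥100 DNA reads were retained.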

(6R,S)-folinic acid [3] = variants of: B1; assay: FACS-Seq fitted mean relative fluorescence mCherry/BFP with ligand (log10 relative fluorescence); HEK293T overexpressing SLC46A1; ligand concentration (+) FACS-Seq: 6 mM; higher = higher reporter protein expression; conditions: with (6R,S)-folinic acid; ligand present: yes
In short: as §1

(6R,S)-folinic acid [4] = variants of: B1; assay: normalized RNA/DNA level with ligand (relative to sTRSVctl = 100) (log10 (% of sTRSVctl)); HEK293T overexpressing SLC46A1; ligand concentration (+) RNA-Seq: 6 mM; higher = less ribozyme self-cleavage, higher mRNA level; conditions: with (6R,S)-folinic acid; ligand present: yes
Procedure: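 Hammerhead (sTRSV) ribozyme switch libraries with a ligand aptamer grafted on stem I and a randomized N4-6 loop II, cloned into the 3' UTR of mCherry and transiently transfected into HEK293T cells; RNA-Seq 72 h post transfection with ligand added 1 h before transfection; RNA read count / plasmid DNA read count normalized to the non-cleaving sTRSVctl (x100), log10; sequences with >100 DNA reads. FACS-Seq: lentiviral library sorted into 6 bins after 48 h ligand, log-normal fit mean of mCherry/BFP scaled to controls. Printed sequences are partial switch sequences.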

| Variant | FACS-Seq fitted mean (log10) ((6R,S)-folinic acid [1]) | normalized RNA/DNA level without ligand (log10) ((6R,S)-folinic acid [2]) | FACS-Seq fitted mean (log10) ((6R,S)-folinic acid [3]) | normalized RNA/DNA level with ligand (log10) ((6R,S)-folinic acid [4]) |
| --- | --- | --- | --- | --- |
| CGCCAG | 0.509 ± 0.022 | 1.998 ± 0.013 | 0.216 ± 0.15 | 1.998 ± 0.016 |
| CGGAAU | 0.329 ± 0.016 | 1.97 ± 0.022 | 0.208 ± 0.2 | 2.02 ± 0.034 |
| CGUAAU | 0.544 ± 0.015 | 1.93 ± 0.029 | 0.552 ± 0.14 | 1.96 ± 0.022 |
| CGUAAA | 0.203 ± 0.0032 | 1.956 ± 0.0076 | 0.334 ± 0.32 | 1.977 ± 0.017 |
| GGGCGG | 0.0567 ± 0.099 | 2.07 ± 0.027 | 0.485 ± 0.0056 | 2.06 ± 0.045 |
| AGGCUA | 0.50616 ± 0.00017 | 2.041 ± 0.0053 | 0.407 ± 0.33 | 2.06 ± 0.037 |
| AGGCUC | 0.131 ± 0.13 | 2.06 ± 0.041 | -0.123 ± 0.11 | 2.01 ± 0.067 |
| UGGUUG | 0.266 ± 0.011 | 1.829 ± 0.014 | 0.626 ± 0.09 | 1.98 ± 0.015 |
| UGGUAG | 0.0552 ± 0.19 | 1.5837 ± 9.7e-05 | 0.505 ± 0.61 | 1.935 ± 0.017 |
| UGGUAA | 0.244 ± 0.12 | 1.878 ± 0.01 | 0.0329 ± 0.18 | 1.95 ± 0.02 |
| UGGUAC | -0.0637 ± 0.16 | 1.994 ± 0.013 | -0.0596 ± 0.18 | 1.99 ± 0.039 |
| UGGUAU | 0.259 ± 0.18 | 1.926 ± 0.0022 | 0.274 ± 0.046 | 1.99 ± 0.015 |
| UGGCAG | 0.237 ± 0.02 | 1.76 ± 0.059 | 0.61 ± 0.17 | 1.955 ± 0.013 |
| GGCAUA | 0.173 ± 0.12 | 2.032 ± 0.012 | 0.286 ± 0.1 | 2.01 ± 0.027 |
| CGGUGU | 0.22 ± 0.22 | 1.993 ± 0.015 | 0.278 ± 0.12 | 1.98 ± 0.046 |
| GGGAGC | 0.342 ± 0.098 | 1.831 ± 0.0028 | 0.435 ± 0.029 | 1.96 ± 0.029 |
| GGGAGU | 0.46 ± 0.087 | 1.975 ± 0.0027 | 0.487 ± 0.054 | 2 ± 0.038 |
| GGGAGG | 0.108 ± 0.032 | 2.014 ± 0.004 | 0.269 ± 0.081 | 2.04 ± 0.032 |

| Variant | FACS-Seq fitted mean (log10) ((6R,S)-folinic acid [1]) | normalized RNA/DNA level without ligand (log10) ((6R,S)-folinic acid [2]) | FACS-Seq fitted mean (log10) ((6R,S)-folinic acid [3]) | normalized RNA/DNA level with ligand (log10) ((6R,S)-folinic acid [4]) |
| --- | --- | --- | --- | --- |
| CGGUUA | 0.594 ± 0.087 | 1.9899 ± 0.00027 | 0.531 ± 0.12 | 2.02 ± 0.056 |
| GGAUUU | 0.647 ± 0.23 | 2.02 ± 0.034 | 0.596 ± 0.19 | 2.01 ± 0.048 |
| GGAUUC | 0.835 ± 0.03 | 2.045 ± 0.0076 | 0.746 ± 0.041 | 2.021 ± 0.016 |
| UGCCUG | 0.68 ± 0.017 | 1.875 ± 0.016 | 0.78 ± 0.085 | 2.02 ± 0.021 |
| UGGGCG | 0.142 ± 0.034 | 1.787 ± 0.014 | 0.637 ± 0.097 | 2.009 ± 0.0047 |
| UGGGCC | 0.229 ± 0.0089 | 2.048 ± 0.012 | 0.157 ± 0.022 | 2.03 ± 0.0098 |
| CGCUUU | -0.0215 ± 0.022 | 2.017 ± 0.0068 | 0.0431 ± 0.039 | 2 ± 0.063 |
| AGGAAU | 0.338 ± 0.1 | 1.988 ± 0.016 | 0.0683 ± 0.36 | 2 ± 0.029 |
| AGGAAC | 0.484 ± 0.041 | 2 ± 0.012 | 0.434 ± 0.11 | 2.018 ± 0.02 |
| AGCGCA | 0.49 ± 0.034 | 2.01 ± 0.021 | 0.548 ± 0.31 | 2.04 ± 0.029 |
| UGCCAA | 0.194 ± 0.021 | 1.956 ± 0.015 | 0.168 ± 0.2 | 2.01 ± 0.0051 |
| UGCCAC | 0.366 ± 0.066 | 1.985 ± 0.017 | 0.438 ± 0.13 | 1.977 ± 0.013 |
| UGUAAA | 0.596 ± 0.02 | 1.924 ± 0.0087 | 0.761 ± 0.19 | 1.993 ± 0.0085 |
| UGUAAG | 0.295 ± 0.0061 | 1.666 ± 0.0027 | 0.624 ± 0.062 | 1.94 ± 0.033 |
| UGUAAU | 0.41 ± 0.068 | 1.886 ± 0.0076 | 0.35 ± 0.072 | 1.994 ± 0.0024 |
| AGGUUU | 0.323 ± 0.15 | 2.003 ± 0.012 | 0.561 ± 0.075 | 2.0283 ± 0.00022 |
| AGGUUA | 0.33 ± 0.013 | 1.981 ± 0.0028 | 0.384 ± 0.056 | 1.98 ± 0.04 |

— the supplement of paper PMC6757056
